This is an account of results in publication PMC7251119 (2020).

To fix the notation:
B1: (His)10-MBP-DotL(656-783)–IcmSW–LvgA (complex)
chain 1: GQNEPEPVEDIVEEEVEGALTIFSKLRIDPNAPPILVADKEVFSEPLLPINETRNQMITIERLAGAKDKYAGTVANELIKDFQIATSYPPEERDVIDVQELTGIIRDLSAKISAEREKANKKAAEELT
chain 2: MERDISKCMAKIAASMNAKFYLNDRFVSFDEVFSETGLLPAIAKRADQLCSLCLGYGLGATYDESEGALLGIRVVFDEVTPNVLRLLCMTDVMNELIQGGPSRDYTPLDELMYD
chain 3: MPDLSHEASAKYWFEYLDPMIYRVITFMESVENWTLDGNPELEEAMKQLGQELDDIEKIDLGLLAEEDKFIRIVGNIKSGRGLRLLQAIDTVHPGSASRVLIHAEETSLSSSDPAGFFLKRNIVFERLRLLSRVFCQYRLKLVLRALEGDE
chain 4: MADGDIEIKAGFVDTDLDDRKLTMIDDLNNPLAIVERVYLIWWHWADFHLHVISPHIDTITPAIVIEPELIPGSNDHEFVYSIHDSGSKLSTSKSQDMFSAGMSMCKLFYTIEKMVYILVERLKSGGVSMEAEVQIAFAGHEIAQRKAFESIINLPYNVVVTNFDPGIWGEKYLQNVKRLADKGYGYPPESPRKIYMHPVSSGTTARK

Assay in all cases: BLI
(In general: Biolayer interferometry detects binding as a change in optical thickness at a sensor tip.)

Assay [1] deals with PieA (Legionella pneumophila).
For assay [2], the target named is SidH(1830-2200) (Legionella pneumophila, UniProt Q5ZRQ1 1830-2200).
The target in assay [3] is B1.

Take B1: the Kd (commonly the constant that tells how readily two partners part at equilibrium) in assay [1] amounted to 230 nM; in assay [2], 570 nM.

B2: SetA (natural protein)
chain: MYKIYSYLGWRIDMKTENLPQAGQEAQIDKKIHFIWVGHIMPQKNIQVVSEWAEKNPGYETIIWVDKKIAPAKELDLFILDMKSKGITVKDINEEGVCRDSIRHELDQESPNYGMVSDMLRLNILAAEGGIYLDSDILCSAPFPDEIYAPFGFLLSPWSQGANNTLCNDIILCSKGNQIIQQLADAIEQSYIARDSFEFTHEYASMKETKGERIAKTLGVTGPGFLFHQLKKMGILNDKSEMEAIHWELQDQRYLIDGSVKEPDYFYVPQNNTNDASWVPSIKRPGIENMSFQERLENAVQLIAFDIQKTGLFNLDHYANELKVKQNSWCIAAETSPELKPDSYLLIRPRDKTGEWTLYYVDEDKKLNPVTLPVIKGAIKLSEVSDPLRKFHTLLSQVSDPVNPTAHELKQIGRALIELKPRQDEWHCKNKWSGAEEIAQELWQRITSNETLRAQIKQCFTQFESLKPRVAELGLTRASGAGTEVEAHESTVKEQEIISQNTVGEEGTKEKNSVQLASENSSDEKIKTAHDLIDEIIQDVIQLDGKLGLLGGNTRQLEDGRVINIPNGAAMIFDDYKKYKQGELTAESALESMIKIAKLSNQLNRHTFFNQRQPETGQFYKKVAAIDLQTTIAAEYDNNHGLRI
With B2, in assay [3], binding was put at a Kd of 920 nM.
